{"source": "patent US7910344B2", "about": "“Proteins having tyrosinase activity” (Valtion teknillinen tutkimuskeskus, priority 2005, dated 2011)", "key": {"[1]": {"tested_on": "salt soluble proteins (SSP) of chicken breast muscle myofibrils", "experiment": "Cross-linking of chicken myofibril salt soluble proteins followed by SDS-PAGE", "method": "Changes in the molecular weight of the isolated salt soluble proteins (SSP) of chicken breast muscle myofibrils caused by TYR2 were analysed by SDS-PAGE. SPP were isolated according to Xiong and Brekke, 1989. For enzyme treatment SSP was suspended in 50 mM Na-phosphate buffer, pH 7, containing 0.6 M NaCl to the protein concentration of 3 mg/ml. 120 nkat or 240 nkat of TYR2 per gram of protein was added to the suspension. Control suspension was treated in a similar way but without enzyme addition. Reaction mixture was incubated at 30° C. Samples were drawn at the time points of 2 min, 1 hour, 3 hours and 24 hours. SDS-PAGE sample buffer was added and the samples were heated in a boiling water bath. 20 μg of protein from each sample was loaded onto 12% Tris-HCl polyacryl amide gels. SDS-PAGE was performed according to Laemmli, 1970."}, "[2]": {"experiment": "pH optimum of the tyrosinase by oxygen consumption measurements", "format": "biochemical", "settings": "15 mM L-Dopa, 4.3 μg purified tyrosinase", "method": "pH optimum for the tyrosinase was studied by oxygen consumption measurements. Measurements were performed with a single channel oxygen meter (Precision sensing GmbH, Germany) containing fiber-optic oxygen minisensors with measurement range 0-100% oxygen. L-Dopa in 15 mM concentration, dissolved in 0.1 M sodium phosphate buffer, pH 7.0, was used as substrate. Reactions were carried out with 1.8 ml substrate solution and with 4.3 μg of the purified T. reesei tyrosinase. Three different buffers were used according to their buffer capacity. McIlvaine buffer was used within a pH range of 2-7, Tris-HCl buffer (50 mM) within a pH range 7-9 and borate buffer (12.5 mM) within a pH range of 8-9.5. The pH optimum of TYR2 is at 8-8.5. The enzyme has relatively high activity within a quite wide pH range, 5-9. […] In the measurements with Tris-HCl buffer in pH 8, 8.5 and 9.0 also a blank test without enzyme addition was performed to correct the effect of auto-oxidation in results. The pH optimum of the tyrosinase seemed to be dependant on the buffer."}, "α-casein": {"tested_on": "α-casein", "experiment": "Cross-linking of model proteins followed by changes in MW on SDS-PAGE", "method": "The cross-linking ability in model proteins of TYR2 was also analyzed by following changes in MW on SDS-PAGE. […] Details are given in examples 8 and 9."}, "caseinate": {"tested_on": "caseinate", "experiment": "Caseinate gel hardness by Texture Analyzer", "settings": "3% caseinate, 0.4% GDL, 20 nkat/g protein TYR2, 22 hours, room temperature", "method": "3% of commercial caseinate was mixed in water and 0.4% GDL (glucono-delta-lactone) and 20 nkat/g protein of TYR2 was added to the mixture. It was allowed to rest for 22 hours at room temperature, whereafter the gel hardness was measured by Texture Analyzer (FIG. 6)."}, "[3]": {"tested_on": "chicken breast myofibrils", "experiment": "Gel forming of chicken myofibril matrix, storage modulus (G′), Bohlin Rheometer", "settings": "240 nkat TYR2/g protein, 25, 30 and 40° C., 3 hours, pH 6", "method": "Ability of TYR2 to form cross-links in a chicken myofibril matrix was also investigated as a development of storage modulus (G′) measuring gel forming ability at low deformation. Measurements were carried out during heating at constant temperature using a Bohlin Rheometer. Chicken breast myofibrils were isolated according to Xiong and Brekke (1989) omitting EDTA and NaN3 from the isolation buffer. Isolated myofibrils were suspended in 50 mM Na-phosphate buffer, pH 6, supplemented with 0.30 M NaCl to the protein concentration of 40 mg/ml. Suspensions were treated with 240 nkat of TYR2 per gram of protein at 25° C., 30° C. and 40° C. for 3 hours. Control samples were treated in a similar way but without enzyme."}, "[4]": {"experiment": "Kieffer extensibility test of wheat dough", "settings": "1 and 10 nkat/g flour, resting 15-45 min, about 22° C.", "method": "The influence of TYR2 on the large deformation rheology of wheat dough was investigated by using Kieffer extensibility rig (Stable Micro Systems, Ltd. United Kingdom). Dough extensibility and resistance to extension were measured as a function of enzyme dosage and dough's resting time.\nWheat flour was mixed with Farinograph (Brabender, Germany) using 12 g flour and 7.2 ml liquid phase (60%). Tyrosinase (1 and 10 nkat/g flour) was added to water right before mixing with flour. Mixing time was 4 min. Subsequently, dough was placed into a mould to produce approximately 10-12 test strings. The pressed mould was kept at room temperature for 15-45 min to allow stress relaxation. In the Kieffer tests, dough strings were centrally extended until the elastic limit of the string was exceeded and it ruptured. Maximum resistance Rmax, maximum extensibility Emax and extensibility Ex at Rmax were determined by recording the peak force and the distance at the maximum and at the extension limit. All dough preparations, enzyme treatments and measurements were performed at room temperature, approximately at 22° C."}, "Isoelectric focusing": {"experiment": "Isoelectric focusing", "format": "physicochemical", "settings": "purified TYR2, Coomassie Blue staining, pH range 3.5-9.5", "method": "The isoelectric point (pI) of the enzyme from culture supernatant and purified enzyme was determined by isoelectric focusing within a pH range of 3.5-9.5 (Ampholine PAGplate 3.5-9.5 for IEF, Amersham Bioscience) on an LKB 2117 Multiphor II Electrophoresis System (LKB Pharmacia, Bromma, Sweden) according to manufacturer's instructions. Bands containing tyrosinase activity were visualized by staining the gel with 15 mM L-Dopa in 0.1 M sodium phosphate buffer (pH 7.0) and proteins by Coomassie Blue staining. […] Under native conditions in isoelectric focusing both the culture filtrate and the purified tyrosinase didn't show a clear band, when stained with L-Dopa, instead the activity was observed as a brown zone at about pH 9."}, "[5]": {"experiment": "Stability of the enzyme at different pH-values (residual activity on L-Dopa)", "format": "physicochemical", "settings": "McIlvaine buffer, room temperature", "method": "The stability of the enzyme at different pH-values was determined in McIlvaine, 50 mM Na2HPO4-25 mM citric acid, buffer by incubating the enzyme solution in different pH-values at room temperature. The residual tyrosinase activity was determined by measuring the activity of the enzyme solutions with L-Dopa as substrate."}}, "note": "“Also recorded” adds a separate entry of the source.", "data": [{"molecule": "TYR2: extracellular tyrosinase of Trichoderma reesei encoded by tyr2, SEQ ID NO:4, 571 amino acids, C-terminally processed (protein, listed as Trichoderma reesei, C-terminally processed) MLLSASLSALALATVSLAQGTTHIPVTGVPVSPGAAVPLRQNINDLAKSGPQWDLYVQAMYNMSKMDSHDPYSFFQIAGIHGAPYIEYNKAGAKSGDGWLGYCPHGEDLFISWHRPYVLLFEQALVSVAKGIANSYPPSVRAKYQAAAASLRAPYWDWAADSSVPAVTVPQTLKINVPSGSSTKTVDYTNPLKTYYFPRMSLTGSYGEFTGGGNDHTVRCAASKQSYPATANSNLAARPYKSWILVTDTESGPQYDVLTNSQNFADFASTSGPGINVEQIHNAIHWDGACGSQFLAPDYSGFDPLFFMHHAQVDRMWAFWEAIMPSSPLFTASYKGQSRFNSKSGSTITPDSPLQPFYQANGKFHTSNTVKSIQGMGYSYQGIEYWQKSQAQIKSSVTTIINQLYGPNSGKKRNAPRDFLSDIVTDVENLIKTRYFAKISVNVTEVTVRPAEINVYVGGQKAGSLIVMKLPAEGTVNGGFTIDNPMQSILHGGLRNAVQAFTEDIEVEILSKDGQAIPLETVPSLSIDLEVANVTLPSALDQLPKYGQRSRHRAKAAQRGHRFAVPHIPPL", "values": [{"measurement": "Detectable electrophoretic changes of SSP", "setting": "[1]; 120 or 240 nkat TYR2/g protein, 30° C., pH 7, up to 24 h", "value": "progressive disappearance of the myosin band of ˜200 kDa; also recorded: progressive disappearance of the band of ˜36 kDa; also recorded: appearance of large molecular weight protein products (>200 kDa)"}, {"measurement": "Cross-linking ability (changes in MW on SDS-PAGE)", "setting": "[1]; chicken myofibril", "value": "able to cross-link"}, {"measurement": "pH range of relatively high activity", "setting": "[2]", "value": "5-9"}, {"measurement": "pH optimum", "setting": "[2]; McIlvaine, Tris-HCl, borate buffers", "value": "8-8.5"}, {"measurement": "Cross-linking ability (changes in MW on SDS-PAGE)", "setting": "α-casein", "value": "able to cross-link"}, {"measurement": "Hardness of caseinate gel", "setting": "caseinate", "value": "doubled the hardness of the caseinate gel"}, {"measurement": "Storage modulus (G′), gel forming", "setting": "[3]", "value": "greater increase in G′"}, {"measurement": "Dough extensibility Ex at Rmax", "setting": "[4]", "value": "decreased the dough extensibility Ex at Rmax"}, {"measurement": "Maximum resistance Rmax of dough", "setting": "[4]", "value": "increased the maximum resistance Rmax of dough"}, {"measurement": "Isoelectric point (bands in isoelectric focusing)", "setting": "Isoelectric focusing", "value": "~9"}, {"measurement": "pH stability", "setting": "[5]", "value": "good stability at neutral and alkaline pH"}]}]}
